Target: human claudin-1 (human) (UniProt O95832)
Test: confocal fluorescence on SW620 cells with control siRNA versus CLDN1 siRNA; non-significant

Chain of human claudin-1 (human) (O95832 whole entry): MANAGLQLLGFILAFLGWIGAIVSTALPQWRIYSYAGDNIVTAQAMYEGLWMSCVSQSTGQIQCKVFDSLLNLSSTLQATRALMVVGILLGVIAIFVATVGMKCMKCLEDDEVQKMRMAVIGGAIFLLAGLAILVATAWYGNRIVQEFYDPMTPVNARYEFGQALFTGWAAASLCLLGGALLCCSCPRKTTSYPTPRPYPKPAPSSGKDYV

In the case of “SPT*-Cy5.5 (control scrambled peptide SPTPSSR labeled with Cy5.5 via the GGGSK linker)”, the fold-change of signal, siCL versus siCLDN1 cells is reported as 0.8 fold.
